This passage reports 25 nM Ag Bound (RU) results from patent US20230131338A1.

The target of experiment [1] is human FXIa (activated; Factor XIa protein, human plasma, Enzyme Research Laboratories cat. HFXIa 1111a) (human) (UniProt P03951). Briefly: SPR (Biacore 8K), mAb captured via anti-human Fc, plasma-derived hFXIa injected, 37°C.
The target in experiment [2] is human FXI (zymogen; Factor XI protein, human plasma, Enzyme Research Laboratories cat. HFXI 1111) (human) (UniProt P03951). Nature of the experiment: SPR (Biacore 8K), mAb captured via anti-human Fc, plasma-derived hFXI injected, 25°C.
The target is the same in experiment [3]. Briefly: SPR (Biacore 8K), mAb captured via anti-human Fc, plasma-derived hFXI injected, 37°C.
Experiment [4] addresses human FXIa (activated; Factor XIa protein, human plasma, Enzyme Research Laboratories cat. HFXIa 1111a) (human) (UniProt P03951). Briefly: SPR (Biacore 8K), mAb captured via anti-human Fc, plasma-derived hFXIa injected, 25°C.

Take “Isotype control mAb [REGN1945] (antibody)”: the 25 nM Ag Bound (RU) was 0.3 RU in experiment [1], 1.3 RU in experiment [2], 3.2 RU in experiment [3] and -1.4 RU in experiment [4].
